From publication PMC4658230

How the values were obtained:
Experiment in all cases: cells, lysate or membranes named
[1] = substrate: C=Cc1ccccc1; details: pH 7.4; 37.0 °C
[2] = substrate: O=[N+]([O-])c1ccc(O)cc1; details: 1 mM NADPH, 37°C, pH 7.4
[3] = substrate: Nc1ccccc1; details: 1 mM NADPH, 37°C, pH 7.4
[4] = other: rat liver microsomes 0.5 mg/mL
[5] = other: rat liver mitochondria 2 mg/mL

Protein | Km [1] | Km [2, 4] | kcat [2, 4] | Km [3, 4] | Km [2, 5] | kcat [2, 5] | Km [3, 5] | kcat [3, 5]
erCYP2E1 (Rattus norvegicus) (protein) MAVLGITIALLVWVATLLVISIWKQIYNSWNLPPGPFPLPILGNIFQLDLKDIPKSFTKLAKRFGPVFTLHLGSRRIVVLHGYKAVKEVLLNHKNEFSGRGDIPVFQEYKNKGIIFNNGPTWKDVRRFSLSILRDWGMGKQGNEARIQREAQFLVEELKKTKGQPFDPTFLIGCAPCNVIADILFNKRFDYNDKKCLRLMSLFNENFYLLSTPWIQLYNNFADYLRYLPGSHRKIMKNVSEIKQYTLEKAKEHLQSLDINCARDVTDCLLIEMEKEKHSQEPMYTMENVSVTLADLFFAGTETTSTTLRYGLLILMKYPEIEEKLHEEIDRVIGPSRVPAVRDRLDMPYMDAVVHEIQRFINLVPSNLPHEATRDTVFQGYVIPKGTVVIPTLDSLLYDSHEFPDPEKFKPEHFLNENGKFKYSDYFKAFSAGKRVCVGEGLARMELFLLLSAILQHFNLKSLVDPKDIDLSPVTVGFGSIPPQFKLCVIPRS | 100 (31 to 2600) μM | 28 (24 to 34) μM | 940 (880 to 1000) pmol/min/pmol CYP2E1 | 2.1 (0.010 to 5.2) μM |  |  |  | 
mtCYP2E1 (Rattus norvegicus) (protein) AVLGITIALLVWVATLLVISIWKQIYNSWNLPPGPFPLPILGNIFQLDLKDIPKSFTKLAKRFGPVFTLHLGSRRIVVLHGYKAVKEVLLNHKNEFSGRGDIPVFQEYKNKGIIFNNGPTWKDVRRFSLSILRDWGMGKQGNEARIQREAQFLVEELKKTKGQPFDPTFLIGCAPCNVIADILFNKRFDYNDKKCLRLMSLFNENFYLLSTPWIQLYNNFADYLRYLPGSHRKIMKNVSEIKQYTLEKAKEHLQSLDINCARDVTDCLLIEMEKEKHSQEPMYTMENVSVTLADLFFAGTETTSTTLRYGLLILMKYPEIEEKLHEEIDRVIGPSRVPAVRDRLDMPYMDAVVHEIQRFINLVPSNLPHEATRDTVFQGYVIPKGTVVIPTLDSLLYDSHEFPDPEKFKPEHFLNENGKFKYSDYFKAFSAGKRVCVGEGLARMELFLLLSAILQHFNLKSLVDPKDIDLSPVTVGFGSIPPQFKLCVIPRS | 45 (36 to 56) μM |  |  |  | 28 (24 to 33) μM | 110 (100 to 110) pmol/min/pmol CYP2E1 | 10 (7.5 to 12) μM | 52 (49 to 54) pmol/min/pmol CYP2E1
